Results reported in US20260234234A1 (QILU PUGET SOUND BIOTHERAPEUTICS, published 2026).

T1: His6-tagged cyIL-33 (Ser112-Ile270), QB10976 (cynomolgus monkey)
T1 construct: Entry includes N-terminal Avitag, FLAG and His6 tags; isoform X1, NCBI XP_005581824; also called cyIL-33 antigen
T1 chain: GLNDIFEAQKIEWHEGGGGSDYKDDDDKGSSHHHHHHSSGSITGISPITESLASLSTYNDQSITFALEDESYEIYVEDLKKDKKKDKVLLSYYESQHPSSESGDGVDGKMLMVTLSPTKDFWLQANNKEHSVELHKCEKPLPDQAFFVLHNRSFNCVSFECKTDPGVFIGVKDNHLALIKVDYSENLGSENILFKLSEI

T2: hST2-Fc protein from R&D Systems (cat no. 523-ST-100) (human, UniProt Q01638 19-328, limits assumed)
T2 construct: Bought reagent; also called human ST2
T2 sequence (looked up): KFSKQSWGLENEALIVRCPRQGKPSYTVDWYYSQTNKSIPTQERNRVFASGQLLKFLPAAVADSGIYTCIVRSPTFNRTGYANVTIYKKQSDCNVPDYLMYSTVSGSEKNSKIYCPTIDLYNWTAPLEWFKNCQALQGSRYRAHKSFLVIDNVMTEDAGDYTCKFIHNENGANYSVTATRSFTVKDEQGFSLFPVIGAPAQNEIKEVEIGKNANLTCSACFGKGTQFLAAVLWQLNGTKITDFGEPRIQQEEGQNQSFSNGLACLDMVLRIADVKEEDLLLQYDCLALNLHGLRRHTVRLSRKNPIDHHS

B1: Avitag_c-MYC_His6-tagged hIL-33 (Ser112-Thr270), QB10975 (ligand)
chain: GLNDIFEAQKIEWHEGGGGSEQKLISEEDLGSSHHHHHHSSGSITGISPITEYLASLSTYNDQSITFALEDESYEIYVEDLKKDEKKDKVLLSYYESQHPSNESGDGVDGKMLMVTLSPTKDFWLHANNKEHSVELHKCEKPLPDQAFFVLHNMHSNCVSFECKTDPGVFIGVKDNHLALIKVDSSENLCTENILFKLSET
notes: Entry includes N-terminal Avitag, c-MYC and His6 tags; reduced with DTT to the active form; also called active hIL-33; reduced hIL-33

Legend:
[1] = biological target: B1; assay: SPR
Description: (§1) The kinetic binding data was obtained using SPR on a Biacore T200 equipment. […] The complex was allowed to associate for 3 min and dissociate for up to 1 hr. At the end of each cycle the CM4 chips were regenerated with 10 mM glycine pH1.5. The T200 Evaluation software V3.2 was used to align and double reference the data. The results were fit to a 1:1 binding model using the global data analysis option within the software.

[2] = biological target: T1, His6-tagged cyIL-33 (Ser112-Ile270), …; assay: SPR, cyIL-33 analyte
Description: as §1

[3] = biological target: B1; assay: SPR, captured antibody, hIL-33 analyte, 37 C, 1:1 fit
Description: (§2) The polyclonal goat-anti-human IgG (Fc specific) antibodies were immobilized on a CM4 chip surface using a standard amine coupling method. […] After each cycle, the chip was regenerated with 10 mM glycine-HCl, pH 1.5. The results were analyzed using Biacore T200 evaluation software V3.2. Results were double referenced and fit to a 1:1 interaction model.
(§3) The kinetic binding data was obtained using SPR on a Biacore T200 equipment. […] The complex was allowed to associate for 3 min and dissociate for up to 1 hr. At the end of each cycle the CM4 chips were regenerated with 10 mM glycine pH1.5. The T200 Evaluation software V3.2 was used to align and double reference the data.

[4] = biological target: T1, His6-tagged cyIL-33 (Ser112-Ile270), …; assay: SPR, captured antibody, cyIL-33 analyte, 25 C, 1:1 fit
Description: as §2, §3

[5] = biological target: T2, hST2-Fc protein from R&D Systems (cat …); assay: SPR, hST2-Fc immobilised on CM5, RU against hIL-33 concentration, 1 min association; 1 min association
Description: (§4) Assessment was performed by SPR (Surface Plasmon Resonance) using Biacore 2000. The x-axis represents antibody concentration (nM), the y-axis represents the Response Units (RU) after correction by blank buffer.
(§5) The binding capacity as Response Units (RU) was recorded.

[6] = biological target: T2, hST2-Fc protein from R&D Systems (cat …); assay: SPR, hST2-Fc immobilised on CM5, RU against hIL-33 concentration, 2 min association; 2 min association
Description: as §4, §5

| Binder | fold increase of affinity against parental antibody QB11119 [1] | fold improvement of affinity against parental antibody QB11119 [2] | Kd [3] | koff [3] | kon [3] | Kd [4] | koff [4] | kon [4] | EC50 [5] | EC50 [6] |
| --- | --- | --- | --- | --- | --- | --- | --- | --- | --- | --- |
| anti-hIL-33 IgG1 antibody QB11421 (antibody, IgG1 L234A, L235A, P329A; also called top clone as IgG1) heavy: EVQLLESGGGLVQPGGSLRLSCAASGFTFYSSAMSWFRQTQGKGLEWVSTISSGGSNTYYPDSVKGRFTISRDNSKNTLYLQMNSLGAEDTAVYYCASAYYGRRYDAMDYWGQGTLVTVSSASTKGPSVFPLAPSSKSTSGGTAALGCLVKDYFPEPVTVSWNSGALTSGVHTFPAVLQSSGLYSLSSVVTVPSSSLGTQTYICNVNHKPSNTKVDKKVEPKSCDKTHTCPPCPAPEAAGGPSVFLFPPKPKDTLMISRTPEVTCVVVDVSHEDPEVKFNWYVDGVEVHNAKTKPREEQYNSTYRVVSVLTVLHQDWLNGKEYKCKVSNKALAAPIEKTISKAKGQPREPQVYTLPPSREEMTKNQVSLTCLVKGFYPSDIAVEWESNGQPENNYKTTPPVLDSDGSFFLYSKLTVDKSRWQQGNVFSCSVMHEALHNHYTQKSLSLSPGK light: DVVMTQSPPSLPVTLGQSASISCKSSESLLHSNANTYLYWFQQRPGQSPQLLIYRGSNLASGVPDRFSGSGSGTDFTLKISRVEAEDVGVYYCMQHLRNPYTFGQGTKVEIKRTVAAPSVFIFPPSDEQLKSGTASVVCLLNNFYPREAKVQWKVDNALQSGNSQESVTEQDSKDSTYSLSSTLTLSKADYEKHKVYACEVTHQGLSSPVTKSFNRGEC | ~2 fold | ~3 fold | 0.207 nM | 0.000669 s⁻¹ | 3.23e+06 M⁻¹ s⁻¹ | 4.89 nM | 0.00188 s⁻¹ | 384000 M⁻¹ s⁻¹ | – | – |
| B1 | – | – | – | – | – | – | – | – | 10.8 nM | 5.17 nM |
